Reference: patent US20040254341A1 (published 2004)
Non-standard residues stand in square brackets, D forms with d. No end group written: not given here. Nle = CCCC[C@H](N)C(=O)O

Molecular target: human Asp2 aspartyl protease (Hu-Asp2), purified enzyme used in the in vitro cleavage assays (human, UniProt P56817 46-456, limits assumed)
Assay: cell-based or functional assay

human Asp2 aspartyl protease (Hu-Asp2), purified enzyme used in the in vitro cleavage assays, sequence (P56817 46-456 Q214H limits assumed): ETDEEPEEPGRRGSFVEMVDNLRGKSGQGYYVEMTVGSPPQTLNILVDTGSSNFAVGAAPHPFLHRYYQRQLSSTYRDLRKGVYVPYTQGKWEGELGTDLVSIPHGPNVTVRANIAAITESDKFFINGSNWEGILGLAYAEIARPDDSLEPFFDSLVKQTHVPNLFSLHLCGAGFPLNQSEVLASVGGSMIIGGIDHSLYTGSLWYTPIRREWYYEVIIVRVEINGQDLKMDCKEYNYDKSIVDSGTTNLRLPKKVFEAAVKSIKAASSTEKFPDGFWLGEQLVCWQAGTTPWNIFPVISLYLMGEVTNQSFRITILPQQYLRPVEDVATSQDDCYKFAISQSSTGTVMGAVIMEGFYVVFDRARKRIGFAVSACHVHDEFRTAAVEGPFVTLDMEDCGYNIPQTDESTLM

| Binder | activity against wild-type [fold] | activity against wild type peptide [fold] | other results |
| --- | --- | --- | --- |
| KTISLDVEPS [KTISL-↓-DVEPS] | – | – | activity against wild-type peptide: ~35 fold |
| SEVSYEAEFR [SEVSY-↓-EAEFR] | ~40 | – | – |
| KTITLEVEPS [KTITL-↓-EVEPS] | – | 6 | – |
| KTIN[Nle]DVDPS [KTINnle-↓-DVDPS] | – | – | activity against peptide #3 (SEQ ID NO:134): ~10 fold reduction |

Now from value to binder, other results behind:

| activity against wild-type [fold] | activity against wild type peptide [fold] | Binder | other results |
| --- | --- | --- | --- |
| ~9 | – | SEVSYDAEFR [SEVSY-↓-DAEFR] | – |
| – | ~70 | SEVSYEVEFR [SEVSY-↓-EVEFR] | – |
